Measurements reported in patent US20240261221A1, “POLYOL-MODIFIED LIPID COMPOUND AND PREPARATION METHOD AND APPLICATION THEREOF” (JENKEM TECHNOLOGY CO., LTD. (TIANJIN), priority 2021, published 2024).

Legend:
KDR mRNA = experiment: Gene inhibitory effect of siRNA-PEG-lipid particle composition after cell delivery in A375 cells; type: cell-based; details: particles prepared from PEG-lipids and anti-KDR siRNA, 24 h and 48 h after transfection
Experimental: (1) ARPE-19 cells were cultured in a DMEM/F12+12% FBS+double antibody medium (containing 100 U/mL Penicillin, 100 μg/mL Streptomycin) and placed in an incubator at 37° C. with 5% CO2 and saturated humidity. 24 h before the experiment, the cells were seeded onto a 12-well plate at 1.2×10^5 cell/well and cultured overnight. (2) 50 μL of diluted anti-KDR siRNA:compound 1 (1:10), anti-KDR siRNA:compound 2 (1:10), and anti-KDR siRNA:compound 3 (1:10) (in molar ratios: the siRNA concentration was 20 μM) from […] with an OPTI-MEM culture medium were separately mixed with 50 μL of a diluted Lipofectamine 3000™ transfection reagent from 3 μL with an OPTI-MEM culture medium for positive control, followed by gently shaking, and the mixed solutions were left to stand for 15 min. In addition, a blank group, an NC group, and an NC-RL group were set.
Anti-KDR siRNA is an siRNA that inhibits VEGFR2 mRNA expression, and the preparation method therefor is described in patent document CN202010229195.2: the sequence is as follows: • Sense strand: 5′-GGAGUGAGAUGAAGAAAUU-3′; • Antisense strand: 5′-AAUUUCUUCAUCUCACUCC-3′. (3) The medium was refreshed for the cells in each well in the cell plate, an antibiotic-free culture medium was added at 900 μL/well, and then 100 μL of the mixed solution was added into each well, finally the total volume of each well being 1000 μL. The siRNA (or siRNA NC, or siR-NC RL) transfection concentration was 50 nM. (4) 24 h and 48 h after transfection, the 12-well plate was taken out from the incubator at 37° C. with 5% CO2, and the cells were harvested for RNA extraction for subsequent detection.
The relative expression level of KDR mRNA was calculated by AACt with GAPDH as an endogenous reference gene: mRNA expression levels were normalized for each group with the expression level for the blank group as 100%.
The foregoing procedure was similar to that of Example 4 except that the culture medium for the A375 cells was a DMEM culture medium containing 10% FBS (containing 100 U/mL Penicillin, 100 μg/mL of Streptomycin).

guinea pigs = experiment: Allergy study of PEG-lipids in guinea pigs: systemic sensitization symptom grading; type: in vivo, guinea pig
Experimental: (§1) 48 healthy guinea pigs which were fed with food normally for 5 days were randomly divided into 6 groups, with 8 guinea pigs for each group.
(§2) Sensitization was carried out by intraperitoneal injection, and the administration was carried out once every other day at a volume of 1 mL/guinea pig for 4 times in total. On the second day after the last sensitization, each group of guinea pigs was challenged by applying a corresponding liquid medicine to the toes thereof via intravenous injection at a dose of 2 mL/guinea pig. […] Blood was collected 40 min after challenging and drug withdrawal, anticoagulated with heparin, and made into blood plasma.
During sensitization and at the time of challenge administration, animals were observed and recorded for the onset and duration of symptoms, such as nasal scratching, sneezing, restlessness, jumping, panting, and purpura, and the score and grade of symptoms were determined according to the criteria for grading symptoms of systemic sensitization (Table 3).

IgE = experiment: Plasma IgE level after challenge administration in guinea pigs; type: in vivo; details: guinea pig plasma, 40 min after challenge
Experimental: 48 healthy guinea pigs which were fed with food normally for 5 days were randomly divided into 6 groups, with 8 guinea pigs for each group. Group A: negative control group (0.9% sodium chloride injection): group B: positive control group (0.15 mg/mL ovalbumin solution. available from Sigma. USA, lot No. DHO15-4): group C: M-PEG47-DTDPAM (i.e., compound 1. prepared in Example 1); group D: M-PEG47-DTDPA (i.e., compound 2. prepared in Example 2): group E: M-DTDPAM-2000 (available from Tianjin JenKem Technology Co., Ltd., lot No. ZZ409P002); group F: M-DTDPA-2000 (available from Tianjin JenKem Technology Co., Ltd., lot No. ZZ409P004).
Sensitization was carried out by intraperitoneal injection, and the administration was carried out once every other day at a volume of 1 mL/guinea pig for 4 times in total. On the second day after the last sensitization, each group of guinea pigs was challenged by applying a corresponding liquid medicine to the toes thereof via intravenous injection at a dose of 2 mL/guinea pig. The animal state was observed daily during sensitization, the reaction of guinea pigs was continuously observed for 40 min at 15 min before and after challenging via intravenous injection, and the time of onset and disappearance of symptoms was recorded. Blood was collected 40 min after challenging and drug withdrawal, anticoagulated with heparin, and made into blood plasma.

histamine = experiment: Plasma histamine level after challenge administration in guinea pigs; type: in vivo, guinea pig
Experimental: as §1, §2

## CCCCCCCCCCCCCCN(CCCCCCCCCCCCCC)C(=O)CCOCCOCCOCCOCCOCCOCCOCCOCCOCCOCCOCCOCCOCCOCCOCCOCCOCCOCCOCCOCCOCCOCCOCCOCCOCCOCCOCCOCCOCCOCCOCCOCCOCCOCCOCCOCCOCCOCCOCCOCCOCCOCCOCCOCCOCCOCCOCCOC [compound 1]
KDR mRNA
  inhibitory effect on KDR mRNA (relative expression level of KDR mRNA): significant and continuous inhibitory effect

## CCCCCCCCCCCCCCN(CCCCCCCCCCCCCC)CCCOCCOCCOCCOCCOCCOCCOCCOCCOCCOCCOCCOCCOCCOCCOCCOCCOCCOCCOCCOCCOCCOCCOCCOCCOCCOCCOCCOCCOCCOCCOCCOCCOCCOCCOCCOCCOCCOCCOCCOCCOCCOCCOCCOCCOCCOCCOCCOC [compound 2]
KDR mRNA
  inhibitory effect on KDR mRNA (relative expression level of KDR mRNA): significant and continuous inhibitory effect

## CCCCCCCCCCCCCC(=O)OCC(COCCOCCOCCOCCOCCOCCOCCOCCOCCOCCOCCOCCOCCOCCOCCOCCOCCOCCOCCOCCOCCOCCOCCOCCOCCOCCOCCOCCOCCOCCOCCOCCOCCOCCOCCOCCOCCOCCOCCOCCOCCOCCOCCOCCOCCOCCOC)OC(=O)CCCCCCCCCCCCC (centres unmarked) [compound 3]
KDR mRNA
  inhibitory effect on KDR mRNA (relative expression level of KDR mRNA): significant and continuous inhibitory effect

B1: Positive control group: 0.15 mg/mL ovalbumin solution, available from Sigma, USA (protein, UniProt P01012 2-386, looked up)
Ovalbumin: GSIGAASMEFCFDVFKELKVHHANENIFYCPIAIMSALAMVYLGAKDSTRTQINKVVRFDKLPGFGDSIEAQCGTSVNVHSSLRDILNQITKPNDVYSFSLASRLYAEERYPILPEYLQCVKELYRGGLEPINFQTAADQARELINSWVESQTNGIIRNVLQPSSVDSQTAMVLVNAIVFKGLWEKAFKDEDTQAMPFRVTEQESKPVQMMYQIGLFRVASMASEKMKILELPFASGTMSMLVLLPDEVSGLEQLESIINFEKLTEWTSSNVMEERKIKVYLPRMKMEEKYNLTSVLMAMGITDVFSSSANLSGISSAESLKISQAVHAAHAEINEAGREVVGSAEAGVDAASVSEEFRADHPFLFCIKHIATNAVLFFGRCVSP
Guinea pigs; after challenge administration, grade per Table 3
  Allergic symptoms (grade): extremely positive
Guinea pigs; i.p. sensitization 4 times, i.v. challenge, scoring per Table 3
  Mean score: 2.8
IgE
  IgE level: 286.33 ± 34.67 ng/mL
histamine; guinea pig plasma after challenge
  plasma histamine level compared with group A: significantly different from that of group A
histamine; guinea pig plasma, 40 min after challenge
  Histamine level: 12.21 ± 4.25 ng/mL
